Data published in the nanobody polyreactivity screen of Harvey et al. (2022).

Assay: yeast display, Sf9 membrane polyspecificity reagent, FACS + sequencing; frameworks hold sequencing errors
Summary of the method: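 After 36–48 hours of galactose induction, yeast (Saccharomyces cerevisiae BJ5465) displaying a synthetic nanobody library were stained at 4 °C for 1 hour with 10% biotinylated, detergent-solubilized Sf9 membrane reagent. Streptavidin microbeads enriched the stained cells before FACS sorting into low and high (top ~1%) gates on anti-HA and streptavidin fluorescence. Each clone's polyreactivity label reflects its gate of origin.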

Sequence	polyreactivity (PSR sort gate)
QVQLVESGGGLVQAGGSLRLSCAASGGIFDTYVMGWYRQAPGKERELVAAITWSGGSTYYADSVKGRFTISRDNAKNTVYLQMNSLKPEDTAVYYCAASGYPIYHDDYWGQGTQVTVSS	low polyreactivity
QVQLVESGGGLVQAGGSLRLSCAASGSTFDTNAMGWYRQAPGKERELVAAITSGGNTYADSVKGRFTISRDNAKNTVYLQMNSLKPEDTAVYYCAAEDVYTGWYDYWGQGTQVTVSS	low polyreactivity
QVQLVESGGGLVQAGGSLRLSCAASGITFYRYAMGWYRQAPGKERELVAAITGSGDSTYYADSVKGRFTISRDNAKNTVYLQMNSLKPEDTAVYYCNTDYGRRYDYWGQGTQVTVSS	high polyreactivity
QVQLVESGGGLVQAGGSLRLSCAASGRTYSYYAMGWYRQAPGKERQLVAAITTRTGSTYYADSVKGRFTISRDNAKNTVYLQMNSLKPEDTAVYYCAAEPRYLRSGKGFDYWGQGTQVTVSS	high polyreactivity
QVQLVESGGGLVQAGGSLRLSCAASGRTFLSYAMGWYRQAPGKERELVAAITSSGGTTNYADSVKGRFTISRDNAKNTVYLQMNSLKPEDTAVYYCAAYSWYFGSRYDYWGQGTQVTVSS	low polyreactivity
QVQLVESGGGLVQAGGSLRLSCAASGITFGRNTMGWYRQAPGKESELVAAIDSGGNTYADSVKGRFTISRDNAKNTVYLQMNSLKPEDTAVYYCAADNSVGEYQRVDYDYWGQGTQVTVSS	low polyreactivity
QVQLVESGGGLVQAGGSLRLSCAASGSIFGDYDMGWYRQAPGKERELVAAINRGGSTYYADSVKGRFTMSRDNAKNTVYLQMISLKPEDTAVYYCAAGYPSWYYGYAYDSWGQGTQVTVSS	low polyreactivity
QVQLVESGGGLVQAGGSLRLSCAASGFTSTINAMGWYRQAPGKERELVAAISVSSGSTYYADSVKGRFTISRDNAKNTVYLQMNSLKPEDTAVYYCATGISRDYIYIILRYDYWGQGTQVTVSS	low polyreactivity
QVQLVESGGGLVQAGGSLRLSCAASGSTFYIYAMGWSRQAPGKEREFVAAIDFSGSSTYADSVKGRFTISLDNAKNTVYLQMNSLKPEDTAVYYCAAYQIYQYYGPYDYWGQGTQVTVSS	low polyreactivity
QVQLVESGGGLVHAGGSLRLSCADSGRIIGINAMGCYRQAPGKERELVAAINWSGGSTYYADSVKGRFTISRDNAKNTVYLQMNSLKPEDTAVYYCAAQKYKRVGYWGLGTQVTVSS	high polyreactivity
QVQLVESGGGLFQAGGSLRLSCAASGSTFDVNTMGGYRQAPGKERELVAAIRLRGGSTYYADSVKGRFTISRYNAKNTVYLQMNSLKPEDTAVYYCAARYPWVYYDFDYWGQGTQVTVSS	low polyreactivity
QVQLVESGGGLVQAGGSLRLSCAASGSTFQVYAMGWYRQAPGKERELVAAISYRDGNTYYADSVKGRFTISRDNAKNTFYLQMNSLKPEDTAVYYCNAGLYLPSGYRRSNGYESDYWGQGTQVTVSS	high polyreactivity
QVQLVESGGGLVQAGGSLRLSCAASGSIFRHNAMGGYRQSPGKERELVAAISRRASSTYYADSVKGRFTISRDNAKNTVYLQLNSLKPEDTAVYYCAVVPSTTYHAYDYWGQGTQVTVSS	high polyreactivity
QVQLVESGGGLVQAGGSLRLSCAASGSIFGTNAMGWYRPAPGKERELVAAINWSGGTTYYADSVKGRFTISRDIAKNTVYLQMNSLKPEDTAVFYCNVGYPSIYDYWGQGTQVTVSS	low polyreactivity
QVQLVESGGGLVQAGGSLRLSCAASGSTFTRYAMGSYRQAPGKERELVAAISRTGGSRTYYADSVKGRFTISRDNAKNTVYLQMNSLNPEDTAVYYCAKGYWRYLGFLYFFPARDYWGQGTQVTVSS	high polyreactivity
QVQLVESGGGLVQAGGSLRLSCAASGRIFGIYAMGWYRQAPGKESEFVAAISWRTGSTYYADSVKWRFTISRDNAKNTVYLQMNRLNPADTAVYYCAAESASKYGYWVQGTQVTVSS	high polyreactivity

Sequence	polyreactivity (PSR sort gate)
QVQLVESGGGLVQAGGSLRLSCAASGRIFYWYAMGWYRKAPGKERELVAAIIWSGGSSYYADSVKGRFTISRDNAKNTVYLQMNSLKPEDTAVYYSAADRILEMGYWGQGTQVTVSS	low polyreactivity
QVQLVESGGGLVQAGGSLRLSCAASGRTFQGNTMGWYRQAPGKERELVAAITWRGTTTYYADSVKGRFTISRDNAKNTVYVQMNSLKPEDTAVYYCAAGHALHSGDEFGYWGQGTQVTVSS	low polyreactivity
QVQLVESGGGLVQAGGSLRLSCAASGRTFEHYSMGWYRQAPGKEREFVAVIDSSDGSTYYADSVKGRFTISRDNAKNTVYLQMNSLKPEDTAVYYCLGGYYYLQYDYWGQGTQVTVSS	low polyreactivity
QVQLVESGGGLVQAGGSLRLSCAASGSTFTVYAMGWYRQAPGKERELVAAITVSTDSTYYADSVKGRFTISRDNAKNTVYLQMNSLKPEDTAVYYCAADSARSGYGRYDSWGQGTQVTVSS	low polyreactivity
QVQLVESGGGLVQAGGSLRLSCAASGRIFRGYLMGWYRQAPGKERELVAVITSGGRTYYADSVKGRFTISRDNAKNTVYLQMNSPKPEDTAVYYCATYPRYKPYYYWGQGTQVTVSS	low polyreactivity
QVQLVESGGGLVQAGGSLRLSCAASGFTFPAYAMGWYRQAPGKERELVAAISSRGGSTYYADSVKGRFTISRDNAKNTVYLQMNSLKPEDTAVYYCASRRANGYYYWGQGTQVTVSS	high polyreactivity
QVQLVESGGGLVQAGGSLRLSCAASGFIFYSYAMGWYRQAPGKERELVAAITSSGGNTYYADSVKGRFTISRDNAKNTGYLQMNSLKPEDTAVYYCNRDRKRGYPYQPYDYWGQGTQVTVSS	high polyreactivity
QVQLVESGGGLFQAGGSLRLSCAASGSSFPFYAMGWYRQAPGKERELVASISSGGSTNYADSVKGRFTISRDNAKNTVYLQMNSLKPEDTAVYYCNADVPYRWDTWFQVVYPESYDYWGQGTQVTVSS	low polyreactivity
QVQLVESGGGLVQAGGSLRLSCAASGLTFERYAMGWYRQAPGKERELVADITWSGGRTYYADSVKGRFTISRDNAKNTVYLQMNSLKPEDTAVYYCAADVYPGYVGSQEYDYWGQGTQVTVSS	low polyreactivity
QVQLVESGGGLVQAGGRLLLSCAASGGTFYRNAMGWYRLAPGKERELVASISRTGGSTYYADSVKGRFTISRDNAKNTVYLQMNSMKPEDTAVYYCNALPYSRGRWRPLSAVDYWGQGTQVTVSS	high polyreactivity
QVQLVESGGGLVQAGGSLRVSCAASGTIFRRYAMGWYRQAPGKERELVATISSCTTTNYADSVKGRFTISRDNAKNTVYLQMNSLKPEDTAVYYCAADDYYEFYWGQGTQVTVSS	high polyreactivity
QVQRVESGGGLVQAGGSLRLSCAASGFIFRRYAMGWYRQAPGKERELVASISSGGNTNYADSVKGRFTISRDNAKNTVYLQMNSLKPEDTAVYYCNDEYRWIAYGYWGQGTQVTVSS	high polyreactivity
QVQLVESGGGLVQAGGSLRLSCAASGRILGAYAMGWYRQAPGKERELVASISSGGRTYYADSVKGRFTISRDNAKNTVYLQMNSLKPEDTAVYYCNRDRNSGFYRRYGYWGQGTQVTVSS	high polyreactivity
QVQLVESGGGLVQAGGSRRLSCAASGFMFGVNAMGWYRQAPGKERELVAVISVRGGSTYYADSLKGRFTISRDNAKNTVYLQMNSLKPEDTAVYYCAADTFAGYYYWGQGTQVTVSS	high polyreactivity
QVQLVESGGGLVQAGGSLRLSCAASGRIFNFYAMGWYRQAPGKERELVASITSDGSTKYADSVKGRFTISRDNAKNTVYLKMNSLKPEDTAVFYCATDTWGSYYDDDDYWGQGTQVTVSS	high polyreactivity
QVQLVESGGGLFQAGGSLRLSCAASGSIFSWNDIGRYIQAPGKERELVAAITSGGSTYYADSVKGRFTISRDNAKNTVYLQMNSLKPEDTAVYYCAAGQDLHDFDYWGQGTQVTVSS	low polyreactivity
